In patent US20170224833A1, “SELF-ASSEMBLING MOLECULES THAT ACCUMULATE IN ACIDIC TUMOR MICROENVIRONMENTS” (OHIO STATE INNOVATION FOUNDATION, priority 2014, published 2017):
*: point of attachment. Palmitoyl = CCCCCCCCCCCCCCCC(=O)*

Test: CD spectroscopy in artificial mouse serum (150 mM NaCl, 2.2 mM CaCl2, 1.8 mM 20 kDa PEG)
Format: physicochemical
Details: both pure and artificial mouse serum
Method: Measurements were done on a Jasco-815 Circular Dichroism spectrometer using 0.5-1 cm path length quartz cuvettes. 500-10 μM of either pure PA or PA mixtures were prepared in 150 mM NaCl and 2.2 mM CaCl2 (and 1.8 mM 20 kDa PEG in select samples) by dilution from a concentrated PA stock (0.5-1 mM, pH 9). Double de-ionized Milli-Q water was used for preparing all solutions. The solutions were then heated at 80° C. for 30 minutes in a water bath and gradually cooled to room temperature. An Accumet XL15 pH meter (Fisher Scientific) coupled with an Orion Ross Ultra semi-micro electrode (8103BNUWP, Thermo Scientific) was used to adjust the pH of the solution to the desired value followed by collection of the CD spectra. Each trace shown was averaged over 3 accumulations and was baseline subtracted using aqueous solutions containing salts only. All spectra are cut-off below 200 nm due to absorption by NaCl and CaCl2. The same procedure was followed for the salt control samples with 3.0 and 4.0 mM CaCl2.
Finally, a medium that accurately replicated the ionic strength and the crowded environment of pure serum and enabled characterization of the PA self assembly behavior using CD and CAC measurements without interference from protein signals was created. This artificial serum solution contains 1.8 mM of 20 kDa PEG, 150 mM NaCl and 2.2 mM CaCl2. […]

For “Palmitoyl-IAAAEEEEK(DO3A:Gd)-NH2 (Palmitoyl-IAAAEEEEK(DO3A)-NH2; also: DO3A chelates Gd) [PA5]”, the “morphology across pH” value was “remains nanofibers across all measured pH values”.
